The text below walks through data of US20210292384A1 (LARIX BIOSCIENCE, published 2021).

The assay deals with T1, RBD domain of SARS-CoV2 spike protein (SARS-CoV-2, UniProt P0DTC2 319-541).
T1 construct: domain: RBD domain
Kind of assay: Octet (BLI), ACE2-Fc against spike RBD. On the technique in general: Biolayer interferometry detects binding as a change in optical thickness at a sensor tip.

B1: LB697-D30E/L79W/N330Y (Fc fusion)
chain: QSTIEEQAKTFLEKFNHEAEDLFYQSSLASWNYNTNITEENVQNMNNAGDKWSAFLKEQSTWAQMYPLQEIQNLTVKLQLQALQQNGSSVLSEDKSKRLNTILNTMSTIYSTGKVCNPDNPQECLLLEPGLNEIMANSLDYNERLWAWESWRSEVGKQLRPLYEEYVVLKNEMARANHYEDYGDYWRGDYEVNGVDGYDYSRGQLIEDVEHTFEEIKPLYEHLHAYVRAKLMNAYPSYISPIGCLPAHLLGDMWGRFWTNLYSLTVPFGQKPNIDVTDAMVDQAWDAQRIFKEAEKFFVSVGLPNMTQGFWEYSMLTDPGNVQKAVCHPTAWDLGKGDFRILMCTKVTMDDFLTAHHEMGHIQYDMAYAAQPFLLRNGANEGFHEAVGEIMSLSAATPKHLKSIGLLSPDFQEDNETEINFLLKQALTIVGTLPFTYMLEKWRWMVFKGEIPKDQWMKKWWEMKREIVGVVEPVPHDETYCDPASLFHVSNDYSFIRYYTRTLYQFQFQEALCQAAKHEGPLHKCDISNSTEAGQKLFNMLRLGKSEPWTLALENVVGAKNMNVRPLLNYFEPLFTWLKDQNKNSFVGWSTDWSPYAD
The Kd is the concentration at which binding is half-saturated. As a reminder, the koff is a measure of how fast the partners let go of each other. By kon is commonly meant a measure of how fast the partners come together. Low readings indicate slow association, high ones fast association. Molecule B1 showed a Kd of 1.49 nM, a koff of 0.0012 s⁻¹ and a kon of 808000 M⁻¹ s⁻¹.

B2: LB697-D30E/Q42K/L79W/N330Y (Fc fusion)
chain: QSTIEEQAKTFLEKFNHEAEDLFYKSSLASWNYNTNITEENVQNMNNAGDKWSAFLKEQSTWAQMYPLQEIQNLTVKLQLQALQQNGSSVLSEDKSKRLNTILNTMSTIYSTGKVCNPDNPQECLLLEPGLNEIMANSLDYNERLWAWESWRSEVGKQLRPLYEEYVVLKNEMARANHYEDYGDYWRGDYEVNGVDGYDYSRGQLIEDVEHTFEEIKPLYEHLHAYVRAKLMNAYPSYISPIGCLPAHLLGDMWGRFWTNLYSLTVPFGQKPNIDVTDAMVDQAWDAQRIFKEAEKFFVSVGLPNMTQGFWEYSMLTDPGNVQKAVCHPTAWDLGKGDFRILMCTKVTMDDFLTAHHEMGHIQYDMAYAAQPFLLRNGANEGFHEAVGEIMSLSAATPKHLKSIGLLSPDFQEDNETEINFLLKQALTIVGTLPFTYMLEKWRWMVFKGEIPKDQWMKKWWEMKREIVGVVEPVPHDETYCDPASLFHVSNDYSFIRYYTRTLYQFQFQEALCQAAKHEGPLHKCDISNSTEAGQKLFNMLRLGKSEPWTLALENVVGAKNMNVRPLLNYFEPLFTWLKDQNKNSFVGWSTDWSPYAD
In turn, B2 yielded a Kd of 0.91 nM, a koff of 0.00074 s⁻¹ and a kon of 810000 M⁻¹ s⁻¹.
